For one test, the system named is cyno ENTPD2. The experiment in a line: FACS binding to cyno ENTPD2 expressing cells (apparent FACS affinity). On the set-up: species or system cynomolgus monkey. The procedure: (§1) FACS screening: Specific binding of candidate antibodies to endogenously expressed ENTPD2 was assessed by flow cytometry. Cells were rinsed thoroughly with 1×PBS and treated with Accutase (Millipore #SCR005) to lift from growth plates and resuspended at approximately 1×10^5 cells/90 μL in 1× FACS buffer (2% FBS+0.1% NaN3 in PBS). In a 96-well U-bottom plate, 10 μL of 10× antibody solution in FACS buffer was pre-seeded and 90 μL of cell suspension was added. Cell were incubated for 30 minutes at 4° C., washed 1× with cold PBS and resuspended in 100 μL of 1:500 secondary antibody 1× FACS buffer (Allophycocyanin conjugated F(ab′)2 goat anti-human IgG, Fcγ specific; Jackson Immunoresearch, Cat#109-136-098). After additional incubation for 15 min at 4° C., cells were washed twice with PBS and resuspended in 100 μL of 1×FACS buffer with 4 μg/mL propidium iodide (Life Technologies, Cat#P3566). Geometric mean fluorescence intensity was calculated on live single cells using FlowJo software.
A general note: A flow cytometer gives signals particle by particle.

The next test has as its target T1, ENTPD2 (Homo sapiens, UniProt Q9Y5L3).
T1 sequence (Q9Y5L3 1-495): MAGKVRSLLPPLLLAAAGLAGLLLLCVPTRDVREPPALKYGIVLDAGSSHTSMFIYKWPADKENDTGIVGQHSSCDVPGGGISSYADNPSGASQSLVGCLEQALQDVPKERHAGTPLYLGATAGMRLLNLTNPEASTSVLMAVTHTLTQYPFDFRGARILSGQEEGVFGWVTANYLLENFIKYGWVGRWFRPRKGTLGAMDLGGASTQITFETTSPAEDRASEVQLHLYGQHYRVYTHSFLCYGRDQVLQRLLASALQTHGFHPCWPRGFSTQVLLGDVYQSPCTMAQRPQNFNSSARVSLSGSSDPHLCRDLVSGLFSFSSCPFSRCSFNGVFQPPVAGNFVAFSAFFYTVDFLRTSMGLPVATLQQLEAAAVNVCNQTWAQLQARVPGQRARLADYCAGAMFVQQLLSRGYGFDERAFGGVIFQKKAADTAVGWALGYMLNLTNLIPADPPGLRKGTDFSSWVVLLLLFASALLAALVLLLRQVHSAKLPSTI
The experiment in a line: FACS binding to human ENTPD2 expressing cells (apparent FACS affinity). Also noted: expressed in transfected cells; host or cells: NIH/3T3 (retroviral transduction). The procedure:
as §1, with “FACS screening: Specific binding of candidate antibodies to endogenously expressed ENTPD2 was assessed by flow cytometry.” left out

The next test deals with T2, Human ENTPD1 (Homo sapiens, UniProt P49961).
T2 construct: expressed in transfected cells; host or cells: NIH/3T3 (retroviral transduction, FACS-sorted)
T2 sequence (P49961 1-510): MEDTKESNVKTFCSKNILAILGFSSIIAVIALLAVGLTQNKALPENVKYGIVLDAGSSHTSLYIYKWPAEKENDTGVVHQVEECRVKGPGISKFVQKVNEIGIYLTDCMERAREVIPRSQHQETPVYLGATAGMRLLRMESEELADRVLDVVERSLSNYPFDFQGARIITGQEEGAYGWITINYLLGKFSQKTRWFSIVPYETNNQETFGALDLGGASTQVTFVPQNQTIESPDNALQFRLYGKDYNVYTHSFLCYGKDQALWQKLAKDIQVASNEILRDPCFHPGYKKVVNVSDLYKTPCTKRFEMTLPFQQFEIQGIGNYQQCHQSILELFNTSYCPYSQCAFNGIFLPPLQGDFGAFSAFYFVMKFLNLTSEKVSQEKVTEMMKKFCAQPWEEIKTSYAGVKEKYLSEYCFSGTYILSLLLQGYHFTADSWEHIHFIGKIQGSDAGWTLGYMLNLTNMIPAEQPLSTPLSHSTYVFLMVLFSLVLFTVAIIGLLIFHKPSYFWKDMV
The experiment in a line: Cross reactivity: FACS binding to human ENTPD1 expressing NIH/3T3 cells. To be noted: NIH/3T3-ENTPD1 cells, 50 nM antibody. As for the experimental part: as §1
Cross reactivity Human ENTPD1 (NP_001767) expressing NIH/3T3 cells were generated using a retroviral transduction approach. 72 hrs post transduction, engineered cells were stained with the anti-Human CD39/ENTPD1 APC-conjugated Antibody (R&D systems, Minneapolis, Minn.) and live cells that expressed human ENTPD1 were separated from the rest of the population via fluorescence activated cell sorting. […]

The EC50 is the concentration that produces a half-maximal response.

cyno ENTPD2, sequence (as listed by the source): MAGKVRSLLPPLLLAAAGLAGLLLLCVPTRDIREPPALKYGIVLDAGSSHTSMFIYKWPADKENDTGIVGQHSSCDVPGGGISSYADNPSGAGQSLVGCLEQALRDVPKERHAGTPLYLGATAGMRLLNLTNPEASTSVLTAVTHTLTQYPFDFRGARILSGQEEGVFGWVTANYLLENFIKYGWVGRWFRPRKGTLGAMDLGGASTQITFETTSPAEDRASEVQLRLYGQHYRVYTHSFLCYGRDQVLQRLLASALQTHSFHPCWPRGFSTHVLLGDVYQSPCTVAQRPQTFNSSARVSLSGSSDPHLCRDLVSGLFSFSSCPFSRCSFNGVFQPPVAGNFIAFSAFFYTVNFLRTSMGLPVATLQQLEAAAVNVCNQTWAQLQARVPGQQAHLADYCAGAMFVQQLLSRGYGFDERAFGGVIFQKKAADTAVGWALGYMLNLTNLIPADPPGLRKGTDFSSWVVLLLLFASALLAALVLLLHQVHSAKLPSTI

B1: mAb13: anti-mouse ENTPD2 antibody; HC SEQ ID NO: 193, LC SEQ ID NO: 204 (antibody)
heavy: QVQLVQSGAELKQPGQSVKISCKASGYTFTHYGMNWVKQAPGQGLKWMGWINTDTGNPTYADDFKGRFVFSLDTSVSTAYLQISNLKNEDTATYYCVRYGTLYSGYGFFFDSWGQGTLVTVSSAKTTAPSVYPLAPVCGDTTGSSVTLGCLVKGYFPEPVTLTWNSGSLSSGVHTFPAVLQSDLYTLSSSVTVTSSTWPSQSITCNVAHPASSTKVDKKIEPRGPTIKPCPPCKCPAPNLLGGPSVFIFPPKIKDVLMISLSPIVTCVVVDVSEDDPDVQISWFVNNVEVHTAQTQTHREDYNSTLRVVSALPIQHQDWMSGKEFKCKVNNKDLPAPIERTISKPKGSVRAPQVYVLPPPEEEMTKKQVTLTCMVTDFMPEDIYVEWTNNGKTELNYKNTEPVLDSDGSYFMYSKLRVEKKNWVERNSYSCSVVHEGLHNHHTTKSFSRTPGK
light: DIMMTQSPSSLSVSAGEKATITCKSSQSLFNSNTNKNYLNWYLQKPGQSPKLLFYYASTRHTGVPDRFIGSGSGTDFTLTITSVQDEDLADYYCQQWYSYPWTFGPGTKLEIKRADAAPTVSIFPPSSEQLTSGGASVVCFLNNFYPKDINVKWKIDGSERQNGVLNSWTDQDSKDSTYSMSSTLTLTKDEYERHNSYTCEATHKTSTSPIVKSFNRNEC
Turning to B1, the “binding to cyno ENTPD2” value in the test with cyno ENTPD2 is given as “no binding”. The “binding to human ENTPD2” value with ENTPD2 is recorded as “no binding”.

B2: mAb7: humanized anti-human ENTPD2 antibody from mAb17; VH SEQ ID NO: 25, VL SEQ ID NO: 78 (antibody, V domains shown)
VH: QVQLVQSGAEVVKPGASVKISCKASGYTFTDYNMDWVKQAPGQRLEWIGDINPKYDISTYNQQFKGKATITVDKSASTAYMELSSLRSEDTAVYYCARRGFFLYYGINYYYFDVWGQGTLVTVSS
VL: EIVLTQSPATLSASPGEEITLSCSASSSVSYIHWYQQKPGQAPRLLIYSTSNLASGIPARFSGSGSGTFYTLTISSVEPEDAAVYYCHQWSSYPWTFGGGTKLEIK
For the molecule B2, the EC50 in the test on cyno ENTPD2 (NIH3T3 cynoENTPD2 cells) is 0.8 nM; in the test with ENTPD2 (NIH3T3 humanENTPD2 cells), 0.5 nM. Moreover, in the test with Human ENTPD1, the “Apparent FACS binding at 50 nM” value is recorded as “No binding”.

The record behind these values is patent publication US20220348651A1, “ENTPD2 ANTIBODIES, COMBINATION THERAPIES, AND METHODS OF USING THE ANTIBODIES AND COMBINATION THERAPIES” (Novartis AG, priority 2019, published 2022).
